{"source": "patent US20100028952A1", "about": "“FERMENTATION AND PURIFICATION OF ACTINOMADURA CHROMOPROTEIN AND RELATED SPECIES” (WYETH, priority 2006, published 2010)", "molecules": {"B1": {"name": "Actinomadura sp. 21G792 chromoprotein: non-covalent complex of an apoprotein and a chromophore comprising a nine-membered enediyne, produced by Actinomadura sp. 21G792 (NRRL 30778) (protein)", "chain": "DTVTVNYDCVGYPSDIAVTIDAPATAGVGDTATFEVSSVVTTGAPQDLPAGEVVTDMAIVVGGAQSGTITASGLTNEATPAGQPVNMVGGEAQITFTSAGSVTFTPSTTTQVDNGAQCTVVGEAPVGATTVVS"}, "B2": {"name": "apoprotein: 21G792 apoprotein (SEQ ID NO:150), protein component of the chromoprotein without chromophore (protein)", "chain": "B1 chain", "modifications": "Actinomadura sp. 21G792"}}, "key": {"histone H1 in HeLa cells": {"system": "histone H1 in HeLa cells", "assay": "Digestion of histone H1 in HeLa cells, immunoblot", "format": "cell-based", "conditions": "HeLa cells incubated overnight at 37° C.; anti-histone H1 immunoblot", "description": "To study whether the digestion of histones by the chromoprotein occurs in intact cells, HeLa cells were incubated with compounds overnight at 37° C. Cell lysates were analysed by SDS-PAGE and protein immunoblotting using anti-histone H1 antibodies (Santa Cruz Biotechnologies). […] This activity can contribute to antitumor effects by digesting histones in chromatin, making the DNA more accessible for cleavage. This appears to be a unique activity of the chromoprotein enediynes."}, "Human PGP (MDR1)": {"target": "T1, Human PGP (MDR1) (Homo sapiens, UniProt P08183)", "T1 construct": "cells expressing clinically relevant levels of MDR1 (KB-8-5 cells) remain sensitive to the complex; endogenous in cells; host or cells: KB (P-GP -), KB-8-5 (+), KB-V-1 (+++)", "T1 sequence (P08183 whole entry)": "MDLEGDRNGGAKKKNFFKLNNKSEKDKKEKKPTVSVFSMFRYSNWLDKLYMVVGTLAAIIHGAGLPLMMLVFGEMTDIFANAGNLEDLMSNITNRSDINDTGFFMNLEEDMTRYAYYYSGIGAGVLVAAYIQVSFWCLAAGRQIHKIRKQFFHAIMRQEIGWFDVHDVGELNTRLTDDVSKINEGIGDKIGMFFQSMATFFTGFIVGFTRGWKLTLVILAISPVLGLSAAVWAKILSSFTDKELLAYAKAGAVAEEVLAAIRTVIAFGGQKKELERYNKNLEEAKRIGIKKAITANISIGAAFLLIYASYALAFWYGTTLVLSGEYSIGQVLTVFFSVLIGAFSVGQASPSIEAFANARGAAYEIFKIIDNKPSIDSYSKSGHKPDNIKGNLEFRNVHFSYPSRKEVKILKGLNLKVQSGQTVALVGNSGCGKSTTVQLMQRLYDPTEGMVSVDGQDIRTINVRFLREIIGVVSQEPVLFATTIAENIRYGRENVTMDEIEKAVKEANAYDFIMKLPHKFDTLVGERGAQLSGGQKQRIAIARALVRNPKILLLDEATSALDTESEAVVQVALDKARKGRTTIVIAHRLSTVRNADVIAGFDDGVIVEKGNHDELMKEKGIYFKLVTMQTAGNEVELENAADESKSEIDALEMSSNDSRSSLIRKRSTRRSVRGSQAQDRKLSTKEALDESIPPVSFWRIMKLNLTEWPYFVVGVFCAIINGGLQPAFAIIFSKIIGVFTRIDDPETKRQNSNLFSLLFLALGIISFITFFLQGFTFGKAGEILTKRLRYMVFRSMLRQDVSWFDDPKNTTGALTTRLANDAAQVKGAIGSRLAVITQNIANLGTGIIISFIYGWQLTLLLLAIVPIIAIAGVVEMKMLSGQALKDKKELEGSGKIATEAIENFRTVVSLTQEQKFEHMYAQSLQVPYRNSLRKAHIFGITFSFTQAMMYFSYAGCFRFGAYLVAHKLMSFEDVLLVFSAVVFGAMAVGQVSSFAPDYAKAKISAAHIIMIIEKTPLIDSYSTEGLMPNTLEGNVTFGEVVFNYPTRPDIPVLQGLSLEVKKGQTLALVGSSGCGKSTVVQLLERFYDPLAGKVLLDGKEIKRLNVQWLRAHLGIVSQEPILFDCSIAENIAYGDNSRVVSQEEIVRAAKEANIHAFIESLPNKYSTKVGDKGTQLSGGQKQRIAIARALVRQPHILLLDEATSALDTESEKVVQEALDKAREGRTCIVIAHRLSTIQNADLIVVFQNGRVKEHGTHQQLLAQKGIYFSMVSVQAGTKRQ", "assay": "Transport by P-GP (MDR-1)", "format": "cell-based", "conditions": "result in words", "from_the_text": "Human PGP (MDR1) is an ATP-dependent efflux pump which is capable of transporting many drugs across cell membranes. High level expression of this protein has been linked to multiple drug resistance of tumors. […] The protein component of the chromoprotein probably protects the chromophore from drug efflux mediated by MDR1, and may be responsible for the beneficial antitumor effects in colon cell lines which often express MDR1."}, "Histone H1": {"system": "Histone H1", "assay": "Digestion of histone H1, SDS-PAGE", "format": "biochemical", "conditions": "for digestion of histone H1: 50 mM Tris-Cl, pH 7.5 overnight at 37° C.", "description": "Histone H1 was incubated with various concentrations of the chromoprotein in 50 mM Tris-Cl, pH 7.5 overnight at 37° C. (FIG. 29) Digestions of histone were assessed by SDS-polyacrylamide gel electrophoresis (SDS-PAGE), followed by staining of the gel with GelCode Blue (Pierce Biotechnology, Inc, Rockford, Ill.)."}, "[1]": {"system": "p53/p21 checkpoint in HCT116 (p21+/+ and p21−/−) cells", "assay": "Induction of the G1/S checkpoint, protein immunoblot", "format": "cell-based, human", "from_the_text": "HCT116 (p21+/+ and p21−/−) cells were exposed to the chromoprotein at various concentrations. […] Activation of the DNA damage checkpoint by the Actinomadura sp. […] 21G792 chromoprotein as shown by the cleavage of poly ADP ribose […] (PARP) (FIG. 23B). This is consistent with the lower IC50 value in the p21−/− cells."}, "MDA-MB-361": {"system": "MDA-MB-361", "assay": "Potency against human tumor cell lines", "format": "cell-based", "conditions": "MDA-MB-361, Breast"}, "BT474": {"system": "BT474", "assay": "Potency against human tumor cell lines", "format": "cell-based", "conditions": "BT474, Breast"}, "LoVo": {"system": "LoVo", "assay": "Potency against human tumor cell lines", "format": "cell-based", "conditions": "Colon"}, "p21+/+ cells": {"system": "p21+/+ cells", "assay": "In vitro anti-tumor activity, isogenic pair of cell lines", "format": "cell-based", "conditions": "p21+/+ isogenic cell line; Mean + SD, n = 3", "from_the_text": "(§1) The p53/p21 checkpoint monitors the integrity of the genome and blocks cell cycle progression in the event of DNA damage. Disruption of the checkpoint by deletion of the p21 gene results in failure to arrest in response to DNA damage ultimately leading to cell death through apoptosis. Since loss of this checkpoint is a hallmark of cancer cells, an isogenic pair of cell lines, wherein one pair of the cell line (p21+/+) has an intact p21 gene and one member (p21−/−) has a deletion in the p21 gene, can be used to screen for potential anti-tumor compounds by identifying molecules that preferentially induce apoptosis in p21-deficient cells.\n(§2) The Actinomadura sp. 21G792 chromoprotein was added to an isogenic pair of cell lines (p21+/+ and p21−/−)."}, "p21−/− cells": {"system": "p21−/− cells", "assay": "In vitro anti-tumor activity, isogenic pair of cell lines", "format": "cell-based", "conditions": "p21−/− isogenic cell line; Mean + SD, n = 3", "from_the_text": "as §1, §2"}, "[2]": {"system": "E. coli BR513-80 SOS response", "assay": "Biochemical induction assay (BIA)", "format": "cell-based", "conditions": "purified, approximately 90% pure", "from_the_text": "The biochemical induction assay identifies DNA damaging agents which induce the SOS response in E. coli BR513-80. BR513-80 contains a translational fusion of the λ PL promoter and the lacZ gene. The λ PL promoter, activated as part of the SOS response after exposure to DNA damaging agents, drives the synthesis of β-galactosidase. β-galactosidase activity is detected by the cleavage of the 6-bromo-2-naphthyl-β-D-galactopyranoside (BNG) which reacts with Fast Blue RR salt to produce a red/purple color. […]\nA BR513-80 overnight culture is diluted 1:20 in LBE broth or equivalent, and the absorbance of the diluted culture is measured at 600 nm. The absorbance of the undiluted culture is calculated, and 5.7 is divided by this value to obtain the volume (in mL) of culture to use as an inoculum per 40 mL soft agar. […] The calculated culture volume is swirled in soft agar, poured evenly over the base layer (40 ml per Nunc BioAssay plate, or 20 mL per 150 mm petri dish), and allowed to solidify for at least 10-15 minutes. […]\nA dye/substrate overlay is prepared by dissolving 87 mg Fast Blue RR salt and 13 mg BNG in 2 mL DMSO and mixing with 40 mL melted 1% soft agar. […] The induction response is scored after 15-20 minutes at room temperature or after 10 min. at about 37° C. […]"}, "[3]": {"system": "HCT116 colon carcinoma cells", "assay": "Uptake of FITC-tagged chromoprotein and apoprotein, fluorescent microscopy / flow cytometry", "format": "cell-based", "conditions": "for competition of label by unlabeled reagent: 10-fold excess of unlabeled reagent", "description": "To determine the mechanism by which the chromoprotein enters cells and exerts its biological activity, the chromoprotein was labeled with a fluorescent tag (FITC) using EZ-Label fluorescent labeling kit (Pierce Biotechnology), according to the manufacturer's recommendation. […] Uptake of labeled material by HCT116 colon carcinoma cells was studied by fluorescent microscopy. Optimum incubation time with cells was 3-6 hours. […] Even though nuclear accumulation is low, the amount is most likely sufficient for biological activity given the potency of the complex.\nTo determine whether an intact complex of chromophore and apoprotein is required for cellular and nuclear entry, the chromoprotein and apoprotein were labeled with FITC. Uptake of labeled material was studied by fluorescent microscopy. Uptake was similar for both apoprotein and chromoprotein.\nTo determine whether the entry of chromoprotein into cells is mediated by a saturable (e.g. cell surface receptor-dependent) process, HCT116 cells were incubated with FITC-labeled chromoprotein (FIG. 37, right panel) or apoprotein (FIG. 37, left panel) in the absence or presence of 10-fold excess of unlabeled reagent (unlabelled chromoprotein or apoprotein, respectively). Cells were analysed by fluorescent microscopy (left) or flow cytometry (right). […] Furthermore, a single homogeneous peak observed in flow cytometry histograms indicated uniform uptake of labeled reagent by all cells. Numbers in the histograms are mean channel numbers (FITC fluorescence).\nOther means by which a protein complex can enter cells is pinocytosis, where caveolae in the surface of the cell pinch off to form pinosomes that are free within the cytoplasm of the cell. Since pinocytosis is an energy-dependent process that requires a functional tubulin cytoskeletal network, we examined the effect of sodium azide, an energy uncoupling agent and nocodazole, an agent which disrupts the tubulin cytoskeleton on cellular uptake. HCT116 cells were treated with FITC-labeled apoprotein in the absence or presence of sodium azideor nocodazole. […] Since the data appears to rule out a receptor-mediated process, pinocytosis is most likely involved."}, "HN5": {"system": "HN5", "assay": "Potency against human tumor cell lines", "format": "cell-based", "conditions": "HN5, Head & Neck"}, "SW620": {"system": "SW620", "assay": "Potency against human tumor cell lines", "format": "cell-based", "conditions": "SW620, Colon"}, "[4]": {"assay": "Toxicity of the chromoprotein in nude mice", "format": "in vivo", "conditions": "except for bone marrow suppression", "description": "21G792 chromoprotein is well-tolerated in nude mice. Specifically, saline control vehicle or the chromoprotein in various doses was administered intravenously to six nude mice on days 1, 5, and 9."}, "Supercoiled φX174 DNA": {"system": "Supercoiled φX174 DNA", "assay": "DNA cleavage assay, gel electrophoresis", "format": "biochemical", "description": "Supercoiled φX174 DNA was incubated with various concentrations of the 21G792 chromoprotein and analyzed by gel electrophoresis. […] Nicked refers to single strand breaks in the DNA and linear refers to double strand breaks."}, "MCF-7": {"system": "MCF-7", "assay": "Potency against human tumor cell lines", "format": "cell-based", "conditions": "MCF-7, Breast"}, "[5]": {"system": "histones H1, H2A, H2B, H3, and H4", "assay": "Specificity of protein digestion by the chromoprotein", "format": "biochemical", "conditions": "myelin basic protein, bovine serum albumin"}, "[6]": {"system": "human tumor cell line panel", "assay": "Human tumor cell line panel (whole panel)", "format": "cell-based", "conditions": "result in words"}}}
{"molecule": "calicheamicin [reference compound]", "values": [{"measurement": "histone H1 in cells", "setting": "histone H1 in HeLa cells", "value": "No effect"}, {"measurement": "MDR1 substrate", "setting": "Human PGP (MDR1)", "value": "good substrate for MDR1"}, {"measurement": "digestion of histone H1", "setting": "Histone H1", "value": "did not cleave histone H1"}]}
{"molecule": "bleomycin", "values": [{"measurement": "histone H1 in cells", "setting": "histone H1 in HeLa cells", "value": "No effect"}]}
{"molecule": "B1", "values": [{"measurement": "induction of the p21 protein", "setting": "[1]; HCT116 p21+/+ and p21−/−", "value": "Induction of the p21 protein was seen in the p21+/+ cells only"}, {"measurement": "induction of apoptosis (PARP cleavage)", "setting": "[1]; p21−/− compared with p21+/+ cells", "value": "induction of apoptosis was preferentially observed in p21−/− cells compared with p21+/+ cells"}, {"measurement": "IC50", "setting": "MDA-MB-361", "value": 5, "unit": "µg/mL"}, {"measurement": "IC50", "setting": "BT474", "value": 47, "unit": "µg/mL"}, {"measurement": "IC50", "setting": "LoVo", "value": 2, "unit": "µg/mL"}, {"measurement": "IC50", "setting": "p21+/+ cells", "value": "90 + 32 μg/ml"}, {"measurement": "IC50", "setting": "p21−/− cells", "value": "7 + 2 μg/ml"}, {"measurement": "BIA activity", "setting": "[2]", "value": "BIA active"}, {"measurement": "histone H1 in cells", "setting": "histone H1 in HeLa cells", "value": "reduced histone H1 in cells"}, {"measurement": "competition of label by unlabeled reagent", "setting": "[3]", "value": "No competition of label was observed"}, {"measurement": "biological activity upon FITC labeling", "setting": "[3]; FITC labeled", "value": "No loss of biological activity"}, {"measurement": "uptake of labeled material, apoprotein versus chromoprotein", "setting": "[3]; FITC labeled", "value": "similar"}, {"measurement": "cellular localisation of label", "setting": "[3]; FITC labeled, fluorescent microscopy", "value": "Most of the label appeared in the cytoplasm, although weak staining was also observed in the nucleus"}, {"measurement": "IC50", "setting": "HN5", "value": 4, "unit": "µg/mL"}, {"measurement": "IC50", "setting": "SW620", "value": 2, "unit": "µg/mL"}, {"measurement": "MDR1 substrate", "setting": "Human PGP (MDR1)", "value": "poor MDR1 substrate"}, {"measurement": "tolerability in nude mice", "setting": "[4]", "value": "well-tolerated"}, {"measurement": "requirement of a reducing agent for DNA cleavage", "setting": "Supercoiled φX174 DNA; dithiothreitol, DTT", "value": "did not require a reducing agent"}, {"measurement": "DNA cleavage", "setting": "Supercoiled φX174 DNA; various concentrations, reaction progressed over 24 hours", "value": "induced single strand breaks and double strand breaks"}, {"measurement": "IC50", "setting": "MCF-7", "value": 2, "unit": "µg/mL"}, {"measurement": "cleavage of other proteins", "setting": "[5]", "value": "cleaves other basic proteins such as myelin basic protein, but not neutral/acidic proteins such as bovine serum albumin"}, {"measurement": "effect of free radical scavengers and protease inhibitors on digestion of histones", "setting": "Histone H1; 30 mM glutathione or N-acetyl cysteine, protease inhibitors", "value": "inhibited by the addition of free radical scavengers, 30 mM glutathione or N-acetyl cysteine (not shown), but not by protease inhibitors"}, {"measurement": "digestion of histone H1", "setting": "Histone H1", "value": "digestion of Histone H1"}, {"measurement": "effect of DNA on digestion of histone H1", "setting": "Histone H1; addition of DNA", "value": "inhibited by addition of DNA"}]}
{"molecule": "B2", "values": [{"measurement": "in vitro anti-tumor activity", "setting": "[6]", "value": "inactive"}, {"measurement": "competition of label by unlabeled reagent", "setting": "[3]", "value": "No competition of label was observed"}, {"measurement": "uptake of labeled material, apoprotein versus chromoprotein", "setting": "[3]; FITC labeled", "value": "similar"}, {"measurement": "effect of sodium azide or nocodazole on uptake of label", "setting": "[3]; FITC-labeled, nocodazole 100 nM", "value": "Both treatments inhibited uptake of label"}, {"measurement": "digestion of histone H1", "setting": "Histone H1", "value": "no activity"}]}
